Earlier results, collected in paper PMC3566329.

Experiments:
[1] = biological target: Methylamine dehydrogenase (quinone) (Paracoccus denitrificans) (UniProt P22619); assay: single turnover kinetics
[2] = biological target: preMADH (Paracoccus denitrificans) (UniProt P22619)

| Substance | Kd [1] [µM] | Kd [2] [µM] |
| --- | --- | --- |
| MauG (di-ferrous) (from UniProt Q51658) | 10.1 | – |
| MauG (from UniProt Q51658) | – | < 1.5 |
